B1: LINE1-full (parent)
chain: UACGUAGGUGGUUUUCCCCUGAUAGUGCUAAGGGGGCCUGGAAGUUUGGACUGGGCAGAGCUCAACACAGCGUGGCAAAGUGGCUGUGGCUAGACUGCCUCUCUGGAUUCCUCGUCACUCAGCAGGGCAUCUCUGAGAGAAAUGCC

The data set covers variants of B1. As to the kind of experiment: self-cleavage, relative activity (ratio to wild type); higher = more cleavage; in vitro, sequencing; the parent is a self-cleaving ribozyme.
UACGUAGGUAGUUUUCCCCUGAUAGUGCUAAGGGGGCCUGGAGGUUUGGACUGGGCAGAGCUCAACACAGCGUGGCAAAGUGGCUGUGGCUAGACUGCCUCUCUGGAUUCCUCGUCACUCAGCAGGGCAUCUCUGAGAGAAAUGCC [G10A A43G]: the self-cleavage is 0.83.
As for UACGUAGGUAGUUUUCCCCUGAUAGUGCUAAGGGGGCCUGGAAGUUUGGUCUGGGCAGAGCUCAACACAGCGUGGCAAAGUGGCUGUGGCUAGACUGCCUCUCUGGAUUCCUCGUCACUCAGCAGGGCAUCUCUGAGAGAAAUGCC [G10A A50U], the self-cleavage was 1.32.
Take UACGUAGGUAGUUUUCCCCUGAUAGUGCUAAGGGGGCCUGGAAGUUUGGACUGGGCAGGGCUCAACACAGCGUGGCAAAGUGGCUGUGGCUAGACUGCCUCUCUGGAUUCCUCGUCACUCAGCAGGGCAUCUCUGAGAGAAAUGCC [G10A A59G]: the self-cleavage was 0.17.
Next, UACGUAGGUAGUUUUCCCCUGAUAGUGCUAAGGGGGCCUGGAAGUUUGGACUGGGCAGAGCUCAACACAGCGUGGCAUAGUGGCUGUGGCUAGACUGCCUCUCUGGAUUCCUCGUCACUCAGCAGGGCAUCUCUGAGAGAAAUGCC [G10A A78U]: 1.83; UACGUAGGUAGUUUUCCCCUGAUAGUGCUAAGGGGGCCUGGAAGUUUGGACUGGGCAGAGCUCAACACAGCGUGGCAAAGUGGCUGUGGUUAGACUGCCUCUCUGGAUUCCUCGUCACUCAGCAGGGCAUCUCUGAGAGAAAUGCC [G10A C90U]: 0.06.
Next, UACGUAGGUAGUUUUCCCCUGAUAGUGCUAAGGGGGCCUGGAAGUUUGGACUGGGCAGAGCUCAACACAGCGUGGCAAAGUGGCUGUGGCUAGAAUGCCUCUCUGGAUUCCUCGUCACUCAGCAGGGCAUCUCUGAGAGAAAUGCC [G10A C95A]: 0.03.
Next, UACGUAGGGGGUUUUCCCCUGAUAGUGCUAAGGGGGCCUGGAAGUUUGGACUGGGCAGAGCUCAACACAGCGUGGCAAAGUGGCUGUGGCUAGACUGCCUCUCUGGAUUCCUCGUCACUCAGCAGGGCAUCUCCGAGAGAAAUGCC [U9G U134C]: 0.71; UACGUAGGUAGUUUUCCCCUGAUAGUGCUAAGGGGGCCUGGAAGUUUGGACUGGGCAGAGCUCAACUCAGCGUGGCAAAGUGGCUGUGGCUAGACUGCCUCUCUGGAUUCCUCGUCACUCAGCAGGGCAUCUCUGAGAGAAAUGCC [G10A A67U]: 0.07; UACGUAGGUAGUUUUCCCCUGCUAGUGCUAAGGGGGCCUGGAAGUUUGGACUGGGCAGAGCUCAACACAGCGUGGCAAAGUGGCUGUGGCUAGACUGCCUCUCUGGAUUCCUCGUCACUCAGCAGGGCAUCUCUGAGAGAAAUGCC [G10A A22C]: 1.54.
As to UACGUAGGUAGUUUUCCCCUGGUAGUGCUAAGGGGGCCUGGAAGUUUGGACUGGGCAGAGCUCAACACAGCGUGGCAAAGUGGCUGUGGCUAGACUGCCUCUCUGGAUUCCUCGUCACUCAGCAGGGCAUCUCUGAGAGAAAUGCC [G10A A22G], the self-cleavage stood at 1.09.
Turning to UACGUAGGUAGUUUUCCCCUGUUAGUGCUAAGGGGGCCUGGAAGUUUGGACUGGGCAGAGCUCAACACAGCGUGGCAAAGUGGCUGUGGCUAGACUGCCUCUCUGGAUUCCUCGUCACUCAGCAGGGCAUCUCUGAGAGAAAUGCC [G10A A22U], the self-cleavage is 1.55.
Next, UACGUAGGUAGUUUUCCCCUGAUAGUGCUAAGGGGGCCUGGAAGUUUGGACUGGGCAGAGCUCAACACAGCGUGGCGAAGUGGCUGUGGCUAGACUGCCUCUCUGGAUUCCUCGUCACUCAGCAGGGCAUCUCUGAGAGAAAUGCC [G10A A77G]: 1.31; UACGUAGGUAGUUUUCCCCUGAUAGUGCUAAGGGGGCCUGGAAGUUUGGACUGGGCAGAGCUCAACACAGCGUGGCAAAGUGGCUGUGGCUAGACUGCCUCUCUGGAUUCCUCGUCACUCAGCAGGGCAUCUCUGUGAGAAAUGCC [G10A A136U]: 0.95; UACGUAGGUAGUUUUCCCCUGAUAGUGCUAAGGGGGCCUGGAAGUUUGGACUGGGCAGAGCUCAACACAGCGUGGCAAAGUGGCUGUGGCUAGACUGCCUCUCUGGAUUCCUCGUCACUCAGCAGGGCAUCUCUGAGAGAAAUGCC [G10A]: 1.11.
The figure for UACGUAGGUAGUUUUCCCCUGAUAGUGCUAAGGGGGCCUGGAAGUUUGGACUGGGCAGAGCUCAACACAGCGUGGCAAAGUGGCUGUGGCUAGACUGCCUCUCUGGAUUCCUCGUCACUCAGCAGGGCAUCUCUGAGGGAAAUGCC [G10A A138G] is 1.2; for UACGUAGGUAGUUUUCCCCUGAUAGUGCUAAGGGGGCCUGGAAGUUUGGACUGGGCAGAGCUCAACACAGCGUGGCAAAGUGGCUGUGGCUAGACUGCCUCUCUGGAUUCCUCGUCACUCAGCAGGGCAUCUUUGAGAGAAAUGCC [G10A C133U] it is 1.31.
The figure for UACGUAGGUAGUUUUCCCCUGAUAGUGCUAAGGGGGCCUGGAAGUUUGGACUGGGCAGAGCUCAACACAGCGUGGCAAAGUGGCUGUGGCUAGACUGCAUCUCUGGAUUCCUCGUCACUCAGCAGGGCAUCUCUGAGAGAAAUGCC [G10A C99A] is 0.42; for UACGUAGGGGGUUUUCCCCUGAUAGUGCUAAGGGGGCCUGGAAGUUUGGACUGGGCAGAGCUCAACACAGCGUGGCAAAGUGGCUGUGGCUAGACUGCCUCUCUGGAUUCCUCGUCACUCAGCAGGGCAUCACUGAGAGAAAUGCC [U9G U132A] it is 0.59; for UACGUAGGUAGUUUUCCCCUGAUAGUGCUAAGGGGGCCUGGAAGUUUGGACUGGGCAGAGCUCAACACAGCGUGGCAAAGUGGCUGUGGCUAGACUGCCUCUCUGGAUUCCUCGUCACUCGGCAGGGCAUCUCUGAGAGAAAUGCC [G10A A121G] it is 1.37.
Regarding UACGUAGGUAGUUUUCCCCUGAUAGUGCUAAGGGGGCCUGGAAGUUUGGACUGGGCAGAGCUCAACACAGCGUGGCAAAGUGGCUGUGGCUAGACUGCCUCUCUGGAUUCCUCGUCACUCAGCUGGGCAUCUCUGAGAGAAAUGCC [G10A A124U], the self-cleavage turned out to be 2.3.

These data come from the RNAGym collection of RNA variant scans (doi:10.7554/elife.90254).
